Source: publication PMC10340464, “Identification of a Novel SSTR3 Full Agonist for the Treatment of Nonfunctioning Pituitary Adenomas” (Cancers, 2023)
Numbered stars: 1 amine (or outer) side, 2 acyl side, 3 side chain; on linkers, the order of the positions; unused ones are H or OH. Square brackets hold non-standard residues; d marks the D form. Side chains are listed from the residue outwards. Peptide text beside a SMILES is read from it. * marks the point of attachment. Ethylenediamine = C(CN[*:2])N[*:1]; Hyp = O=C(O)[C@@H]1C[C@@H](O)CN1; Phg = N[C@H](C(=O)O)c1ccccc1; CO = O=C([*:1])[*:2]; Bn = c1ccc(C*)cc1

Experiments:
[1] = species, matrix, method and reference not given; cited from earlier work
[2] = target: human somatostatin receptor 5 (human) (UniProt P35346)
[3] = target: human somatostatin receptor 2 (human) (UniProt P30874); experiment: radioligand binding; competition with 3-[125I]iodotyrosyl11 somatostatin-14 on membrane extracts of CHO-K1 cells expressing the human receptor; agonist 10^-11 to 3 x 10^-7 M, n = 2; 60 min at 25 °C, filtered and counted
[4] = target: human somatostatin receptor 3 (human) (UniProt P32745); experiment: as above
[5] = target: human somatostatin receptor 1 (human) (UniProt P30872); experiment: as above
[6] = target: human somatostatin receptor 5 (human) (UniProt P35346); experiment: as above
[7] = target: human somatostatin receptor 3 (human) (UniProt P32745)

Sequence of human somatostatin receptor 3 (human) (P32745 whole entry): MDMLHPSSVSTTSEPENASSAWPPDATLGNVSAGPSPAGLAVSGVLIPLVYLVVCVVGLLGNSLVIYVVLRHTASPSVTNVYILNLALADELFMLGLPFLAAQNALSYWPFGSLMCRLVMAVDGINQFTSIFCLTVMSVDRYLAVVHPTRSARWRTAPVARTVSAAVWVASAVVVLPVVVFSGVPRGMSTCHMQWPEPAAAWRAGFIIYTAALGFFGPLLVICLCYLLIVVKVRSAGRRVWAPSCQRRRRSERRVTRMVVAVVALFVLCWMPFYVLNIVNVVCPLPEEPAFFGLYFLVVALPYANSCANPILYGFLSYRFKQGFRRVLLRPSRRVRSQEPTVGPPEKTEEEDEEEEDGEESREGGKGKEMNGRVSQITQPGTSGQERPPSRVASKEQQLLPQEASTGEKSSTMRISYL
Sequence of human somatostatin receptor 5 (human) (P35346 whole entry): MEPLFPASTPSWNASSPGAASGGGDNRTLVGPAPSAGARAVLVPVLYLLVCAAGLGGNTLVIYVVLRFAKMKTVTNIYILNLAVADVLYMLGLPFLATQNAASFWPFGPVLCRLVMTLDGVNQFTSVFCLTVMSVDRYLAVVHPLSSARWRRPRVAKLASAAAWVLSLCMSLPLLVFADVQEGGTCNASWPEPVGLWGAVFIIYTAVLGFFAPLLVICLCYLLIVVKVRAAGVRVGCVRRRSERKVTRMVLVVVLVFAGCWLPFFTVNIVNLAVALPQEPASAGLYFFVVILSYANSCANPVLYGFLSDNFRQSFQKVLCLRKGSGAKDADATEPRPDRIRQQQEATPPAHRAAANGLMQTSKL
Sequence of human somatostatin receptor 1 (human) (P30872 whole entry): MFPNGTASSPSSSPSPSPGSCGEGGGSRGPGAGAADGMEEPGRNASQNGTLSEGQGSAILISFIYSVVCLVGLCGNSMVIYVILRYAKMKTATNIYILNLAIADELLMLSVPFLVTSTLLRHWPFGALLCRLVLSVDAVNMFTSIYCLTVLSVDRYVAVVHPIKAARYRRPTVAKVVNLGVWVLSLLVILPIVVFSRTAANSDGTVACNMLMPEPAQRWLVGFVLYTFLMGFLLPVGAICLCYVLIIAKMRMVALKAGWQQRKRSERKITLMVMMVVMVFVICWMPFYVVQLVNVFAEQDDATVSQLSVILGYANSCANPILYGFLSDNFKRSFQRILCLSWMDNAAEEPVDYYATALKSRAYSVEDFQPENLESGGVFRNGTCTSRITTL
Sequence of human somatostatin receptor 2 (human) (P30874 whole entry): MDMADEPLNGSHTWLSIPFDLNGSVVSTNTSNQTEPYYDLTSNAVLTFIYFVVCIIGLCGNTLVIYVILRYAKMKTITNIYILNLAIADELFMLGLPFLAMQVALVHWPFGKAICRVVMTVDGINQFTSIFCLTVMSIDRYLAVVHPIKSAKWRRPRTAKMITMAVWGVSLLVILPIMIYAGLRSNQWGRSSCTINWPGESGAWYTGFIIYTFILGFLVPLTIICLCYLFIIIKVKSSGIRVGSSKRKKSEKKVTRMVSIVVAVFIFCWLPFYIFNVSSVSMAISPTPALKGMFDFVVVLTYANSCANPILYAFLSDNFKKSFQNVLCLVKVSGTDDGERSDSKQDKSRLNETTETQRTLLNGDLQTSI

In the case of C[C@H](N)C(=O)NCC(=O)N[C@H]1CSSC[C@@H](C(=O)O)NC(=O)[C@H](CO)NC(=O)[C@H]([C@@H](C)O)NC(=O)[C@H](Cc2ccccc2)NC(=O)[C@H]([C@@H](C)O)NC(=O)[C@H](CCCCN)NC(=O)[C@H](Cc2c[nH]c3ccccc23)NC(=O)[C@H](Cc2ccccc2)NC(=O)[C@H](Cc2ccccc2)NC(=O)[C@H](CC(N)=O)NC(=O)[C@H](CCCCN)NC1=O [SST-14], the Half-time life [1] is listed as 2.5 min.
In the case of NCCCC[C@@H]1NC(=O)[C@@H](Cc2c[nH]c3ccccc23)NC(=O)[C@H](c2ccccc2)NC(=O)[C@@H]2C[C@@H](OC(=O)NCCN)CN2C(=O)[C@H](Cc2ccccc2)NC(=O)[C@H](Cc2ccc(OCc3ccccc3)cc2)NC1=O [Pasireotide] (cyclo([Hyp]([CO-Ethylenediamine])[Phg][dW]KY(Bn)F)), the Half-time life [1] is listed as 1080 min.
In the case of C[C@@H](O)[C@@H]1NC(=O)[C@H](CCCCN)NC(=O)[C@@H](Cc2c[nH]c3ccccc23)NC(=O)[C@H](Cc2ccccc2)NC(=O)[C@@H](NC(=O)[C@H](N)Cc2ccccc2)CSSC[C@@H](C(=O)N[C@H](CO)[C@@H](C)O)NC1=O [Octreotide], the Half-time life [1] is given as 120 min.
In the case of CSCC[C@H](NC(=O)[C@H](C)NC(=O)[C@@H]1CCCN1C(=O)[C@H](CC(N)=O)NC(=O)[C@H](CO)NC(=O)[C@H](CC(N)=O)NC(=O)[C@H](C)NC(=O)[C@@H](N)CO)C(=O)N[C@@H](C)C(=O)N1CCC[C@H]1C(=O)N[C@@H](CCCNC(=N)N)C(=O)N[C@@H](CCC(=O)O)C(=O)N[C@@H](CCCNC(=N)N)C(=O)N[C@@H](CCCCN)C(=O)N[C@@H](C)C(=O)NCC(=O)N[C@H]1CSSC[C@@H](C(=O)O)NC(=O)[C@H](CO)NC(=O)[C@H]([C@@H](C)O)NC(=O)[C@H](Cc2ccccc2)NC(=O)[C@H]([C@@H](C)O)NC(=O)[C@H](CCCCN)NC(=O)[C@H](Cc2c[nH]c3ccccc23)NC(=O)[C@H](Cc2ccccc2)NC(=O)[C@H](Cc2ccccc2)NC(=O)[C@H](CC(N)=O)NC(=O)[C@H](CCCCN)NC1=O [SST-28], the Half-time life [1] is given as 2.0 min.
Compound Octreotide (peptide) has a receptor internalization in U2OS cells transfected with SSTR5-tGFP, 10^-9 to 10^-5 M, 7 h; the cell gives 10^-5 M (10^-6 M) (% of activity) [2] of 39.3.
With Pasireotide (peptide) the IC50 [3] was 5.5 nM, the IC50 [4] was 2.73 nM and the IC50 [5] was 43.9 nM. For the same compound, the IC50 [6] was 0.37 nM, the EC50 of GIRK2 channel activation via SSTR3 in transfected HEK293 cells (fluorescence membrane potential assay) [7] was 63 nM and the receptor internalization in U2OS cells transfected with SSTR3-tGFP, 10^-9 to 10^-5 M, 3 h; the cell gives 10^-5 M (10^-6 M) (% of activity) [7] was 46.3. The EC50 of GIRK2 channel activation via SSTR5 in transfected HEK293 cells (fluorescence membrane potential assay) [2] was 16.5 nM and the receptor internalization in U2OS cells transfected with SSTR5-tGFP, 10^-9 to 10^-5 M, 7 h; the cell gives 10^-5 M (10^-6 M) (% of activity) [2] was 43.9.
